Laboratory results published in publication doi:10.1101/521351 (bioRxiv, 2019).
One block for each molecule: values may come before it.

Assays:
[1] = target: ICA512 RESP18HD (regulated endocrine-specific protein 18 homology domain of ICA512, residues 35-131) (human) (UniProt Q16849); test: co-sedimentation
light scattering = target: the molecule itself; test: light scattering

stoichiometry N ([1]; scale: mole of insulin per mole of ICA512 RESP18HD): 0.4 | stoichiometry N ([1]; scale: moles of insulin per mole of ICA512 RESP18HD): 2.8
Molecule: Human insulin (ligand)

B1: ICA512 RESP18HD (regulated endocrine-specific protein 18 homology domain of ICA512, residues 35-131) (domain or fragment, human, UniProt Q16849 35-131, looked up)
chain: VSAHGCLFDRRLCSHLEVCIQDGLFGQCQVGVGQARPLLQVTSPVLQRLQGVLRQLMSQGLSWHDDLTQYVISQEMERIPRLRPPEPRPRDRSGLAP
binding result (light scattering): binds
